Experimental data published in patent US11325966.

Key:
Experiment in all cases: cell-based or functional assay
JR-CSF D325A (HIV-1) = JR-CSF D325A (HIV-1) (UniProt P20871)
92BR020 D325A (HIV-1) = target: 92BR020 D325A (HIV-1)
JR-CSF N392A (HIV-1) = JR-CSF N392A (HIV-1) (UniProt P20871)
JR-CSF G324A (HIV-1) = JR-CSF G324A (HIV-1) (UniProt P20871)
92BR020 N386A (HIV-1) = target: 92BR020 N386A (HIV-1)
92BR020 (HIV-1) = target: 92BR020 (HIV-1)
[1] = target: BG505 (T332N) N156A (HIV-1)
[2] = target: HIV-1 Env of pseudovirus 1394C9G1(Rev-) (HIV-1)
92BR020 N301A (HIV-1) = target: 92BR020 N301A (HIV-1)
JR-CSF N332A (HIV-1) = JR-CSF N332A (HIV-1) (UniProt P20871)
[3] = target: 92BR020 N156A + N332A (HIV-1)
92BR020 N332A (HIV-1) = target: 92BR020 N332A (HIV-1)
[4] = target: HIV-1 Env of pseudovirus C3347.c11 (HIV-1)
JR-CSF I326A (HIV-1) = JR-CSF I326A (HIV-1) (UniProt P20871)
92BR020 I326A (HIV-1) = target: 92BR020 I326A (HIV-1)
92BR020 N392A (HIV-1) = target: 92BR020 N392A (HIV-1)
[5] = target: HIV-1 Env of pseudovirus 7030102001E5(Rev-) (HIV-1)
[6] = target: HIV-1 Env of pseudovirus ZM247v1(Rev-) (HIV-1)
[7] = target: BG505 (T332N) N137A (HIV-1)
JR-CSF H33OA (HIV-1) = JR-CSF H33OA (HIV-1) (UniProt P20871)
JR-CSF N339A (HIV-1) = JR-CSF N339A (HIV-1) (UniProt P20871)
[8] = target: 92BR020 N301A + N332A (HIV-1)
[9] = target: HIV-1 Env of pseudovirus CNE8 (HIV-1)
[10] = target: HIV-1 Env of pseudovirus Ce0682_E4 (HIV-1)
[11] = target: HIV-1 Env of pseudovirus Ce0393_C3 (HIV-1)
[12] = target: HIV-1 Env of pseudovirus 6545.v4.c1 (HIV-1)
[13] = target: HIV-1 Env of pseudovirus BJOX010000.06.2 (HIV-1)
[14] = target: HIV-1 Env of pseudovirus CNE5 (HIV-1)
[15] = target: HIV-1 Env of pseudovirus TRO.11 (HIV-1)
[16] = target: HIV-1 Env of pseudovirus RHPA4259.7 (HIV-1)
[17] = target: HIV-1 Env of pseudovirus HIV-16055-2.3 (HIV-1)
[18] = target: HIV-1 Env of pseudovirus HIV-16845-2.22 (HIV-1)
[19] = target: HIV-1 Env of pseudovirus 191084 B7-19 (HIV-1)
[20] = target: HIV-1 Env of pseudovirus BF1266.431a (HIV-1)
[21] = target: HIV-1 Env of pseudovirus HIV-001428-2.42 (HIV-1)
[22] = target: HIV-1 Env of pseudovirus ZM249M.PL1 (HIV-1)
[23] = target: HIV-1 Env of pseudovirus MS208.A1 (HIV-1)
[24] = target: HIV-1 Env of pseudovirus 9004SS_A3_4 (HIV-1)
[25] = target: HIV-1 Env of pseudovirus 6041.v3.c23 (HIV-1)
[26] = target: HIV-1 Env of pseudovirus 235-47 (HIV-1)
[27] = target: HIV-1 Env of pseudovirus Du422.1 (HIV-1)
[28] = target: HIV-1 Env of pseudovirus T278-50 (HIV-1)
[29] = target: HIV-1 Env of pseudovirus 191955_A11 (HIV-1)
[30] = target: HIV-1 Env of pseudovirus 263-8 (HIV-1)

354BG8 (antibody)
IC50 in TZM-bl assay (JR-CSF D325A (HIV-1)): 0.005 µg/mL | IC50 in TZM-bl assay (92BR020 D325A (HIV-1)): 0.006 µg/mL | IC50 in TZM-bl assay (JR-CSF N392A (HIV-1)): 0.014 µg/mL | IC50 in TZM-bl assay (JR-CSF G324A (HIV-1)): 0.005 µg/mL | IC50 in TZM-bl assay (92BR020 N386A (HIV-1)): 0.012 µg/mL | IC50 in TZM-bl assay (92BR020 (HIV-1)): 0.015 µg/mL | IC50 in TZM-bl assay [1]: 0.008 µg/mL | IC50 in TZM-bl assay [2]: 0.031 µg/mL | IC80 in TZM-bl assay [2]: 0.093 µg/mL | IC50 in TZM-bl assay (92BR020 N301A (HIV-1)): 0.009 µg/mL | IC50 in TZM-bl assay (JR-CSF N332A (HIV-1)): > 50 µg/mL | IC50 in TZM-bl assay [3]: > 50 µg/mL | IC50 in TZM-bl assay (92BR020 N332A (HIV-1)): > 50 µg/mL | IC50 in TZM-bl assay [4]: > 10 µg/mL | IC80 in TZM-bl assay [4]: > 10 µg/mL | IC50 in TZM-bl assay (JR-CSF I326A (HIV-1)): 0.005 µg/mL | IC50 in TZM-bl assay (92BR020 I326A (HIV-1)): 0.006 µg/mL | IC50 in TZM-bl assay (92BR020 N392A (HIV-1)): 0.023 µg/mL | IC50 in TZM-bl assay [5]: 0.009 µg/mL | IC80 in TZM-bl assay [5]: 0.019 µg/mL | IC50 in TZM-bl assay [6]: 0.042 µg/mL | IC80 in TZM-bl assay [6]: 0.146 µg/mL | IC50 in TZM-bl assay [7]: 0.003 µg/mL | IC50 in TZM-bl assay (JR-CSF H33OA (HIV-1)): 0.05 µg/mL | IC50 in TZM-bl assay (JR-CSF N339A (HIV-1)): 0.01 µg/mL | IC50 in TZM-bl assay [8]: > 50 µg/mL

B1: 10-1074 (antibody, V domains shown)
VH: QVQLQESGPGLVKPSETLSVTCSVSGDSMNNYYWTWIRQSPGKGLEWIGYISDRESATYNPSLNSRVVISRDTSKNQLSLKLNSVTPADTAVYYCATARRGQRIYGVVSFGEFFYYYSMDVWGKGTTVTVSS
VL: SYVRPLSVALGETARISCGRQALGSRAVQWYQHRPGQAPILLIYNNQDRPSGIPERFSGTPDINFGTRATLTISGVEAGDEADYYCHMWDSRSGFSWSFGGATRLTVL
IC50 in TZM-bl assay [9]: > 10 µg/mL | IC80 in TZM-bl assay [9]: > 10 µg/mL | IC50 in TZM-bl assay [10]: > 10 µg/mL | IC80 in TZM-bl assay [10]: > 10 µg/mL | IC50 in TZM-bl assay [11]: > 10 µg/mL | IC80 in TZM-bl assay [11]: > 10 µg/mL | IC50 in TZM-bl assay [12]: > 10 µg/mL | IC80 in TZM-bl assay [12]: > 10 µg/mL | IC50 in TZM-bl assay [13]: > 10 µg/mL | IC80 in TZM-bl assay [13]: > 10 µg/mL | IC50 in TZM-bl assay [14]: > 10 µg/mL | IC80 in TZM-bl assay [14]: > 10 µg/mL | IC50 in TZM-bl assay [15]: 0.011 µg/mL | IC80 in TZM-bl assay [15]: 0.039 µg/mL | IC50 in TZM-bl assay [16]: 0.023 µg/mL | IC80 in TZM-bl assay [16]: 0.083 µg/mL | IC50 in TZM-bl assay [17]: > 10 µg/mL | IC80 in TZM-bl assay [17]: > 10 µg/mL | IC50 in TZM-bl assay [18]: 0.727 µg/mL | IC80 in TZM-bl assay [18]: 3.93 µg/mL | IC50 in TZM-bl assay [19]: 0.026 µg/mL | IC80 in TZM-bl assay [19]: 0.108 µg/mL | IC50 in TZM-bl assay [20]: > 10 µg/mL | IC80 in TZM-bl assay [20]: > 10 µg/mL | IC50 in TZM-bl assay [21]: 0.035 µg/mL | IC80 in TZM-bl assay [21]: 0.126 µg/mL | IC50 in TZM-bl assay [22]: > 10 µg/mL | IC80 in TZM-bl assay [22]: > 10 µg/mL | IC50 in TZM-bl assay [23]: > 10 µg/mL | IC80 in TZM-bl assay [23]: > 10 µg/mL | IC50 in TZM-bl assay [24]: 0.012 µg/mL | IC80 in TZM-bl assay [24]: 0.032 µg/mL | IC50 in TZM-bl assay [25]: > 10 µg/mL | IC80 in TZM-bl assay [25]: > 10 µg/mL | IC50 in TZM-bl assay [26]: 0.058 µg/mL | IC80 in TZM-bl assay [26]: 0.224 µg/mL | IC50 in TZM-bl assay [27]: 0.047 µg/mL | IC80 in TZM-bl assay [27]: 0.113 µg/mL | IC50 in TZM-bl assay [28]: 1.71 µg/mL | IC80 in TZM-bl assay [28]: > 10 µg/mL | IC50 in TZM-bl assay [29]: > 10 µg/mL | IC80 in TZM-bl assay [29]: > 10 µg/mL | IC50 in TZM-bl assay [30]: 0.416 µg/mL | IC80 in TZM-bl assay [30]: 5.71 µg/mL
